# Earlier results, collected in paper PMC4030972.
# Target: cholera toxin A1 subunit CtxA1 (Vibrio cholerae) (UniProt P01555)
# UniProt P01555, sequence (P01555 19-212): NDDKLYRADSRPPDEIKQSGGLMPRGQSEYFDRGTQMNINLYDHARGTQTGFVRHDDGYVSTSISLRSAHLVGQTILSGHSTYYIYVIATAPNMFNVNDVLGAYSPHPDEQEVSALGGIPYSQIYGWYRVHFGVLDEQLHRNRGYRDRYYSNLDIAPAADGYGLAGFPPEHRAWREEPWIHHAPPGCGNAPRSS
substance,measurement,value
Hsp90 (from UniProt P08238),Kd,7 nM
